Measurements: paper PMC8839947, “Highly Sensitive RNA-Based Electrochemical Aptasensor for the Determination of C-Reactive Protein Using Carbon Nanofiber-Chitosan Modified Screen-Printed Electrode”

Molecular target: T1, C-reactive protein (CRP) (UniProt P02741 19-224)
T1 sequence: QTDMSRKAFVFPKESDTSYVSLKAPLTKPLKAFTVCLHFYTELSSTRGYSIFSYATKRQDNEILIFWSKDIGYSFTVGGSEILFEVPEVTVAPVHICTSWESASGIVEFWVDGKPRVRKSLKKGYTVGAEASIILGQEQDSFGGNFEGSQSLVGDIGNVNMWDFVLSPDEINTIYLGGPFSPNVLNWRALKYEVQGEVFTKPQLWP
Assay: square-wave voltammetry (Langmuir isotherm, MB signal-off electrode); 2 mM CaCl2; 60 min incubation; KL 1.07 pM-1; CRP incubation in 0.1 M Tris pH 7.4, 2 mM CaCl2, 60 min; SWV read-out in PBS (0.1 M, pH 7.4); BSA-blocked electrode; incubation temperature not stated (298 K used in calculations)
Details: protein: commercial; chain copies: 5; label: methylene blue self-assembled (non-covalent); immobilized via glutaraldehyde on CNFs-chitosan carbon screen-printed electrode

GCCUGUAAGGUGGUCGGUGUGGCGAGUGUGUUAGGAGAGAUUGC (structured_RNA, 5'-NH2-(CH2)6) [CRP RNA aptamer (5'-amino)] showed a Kd of 0.93 pM.
